# Values quoted from earlier work in patent US10190113B2, “Methods and compositions for segregating target nucleic acid from mixed nucleic acid samples” (FLIR DETECTION, INC., priority 2011, dated 2019).
# Substitutions are numbered along the chain they refer to. Names may count otherwise.
# B1: BsoBI I95M: BsoBI restriction enzyme with mutation I95M (protein, UniProt P70985 2-323, looked up, variant I95M)
# Type II restriction enzyme …: NTQKPFENHLKSVDDLKTTYEEYRAGFIAFALEKNKRSTPYIERARALKVAASVAKTPKDLLYLEDIQDALLYASGISDKAKKFLTEDDKKESMNNLIENFLEPAGEEFIDELIFRYLLFQGDSLGGTMRNIAGALAQQKLTRAIISALDIANIPYKWLDSRDKKYTNWMDKPEDDYELETFAKGISWTINGKHRTLMYNITVPLVKKNVDICLFNCEPEIYTPQKVHQQPEKYLLLGELKGGIDPAGADEHWKTANTALTRIRNKFSEKGLSPKTIFIGAAIEHSMAEEIWDQLQSGSLTNSANLTKTEQVGSLCRWIINI
# B2: BsoBI D212N: BsoBI restriction enzyme with mutation D212N (protein, UniProt P70985 2-323, looked up, variant D212N)
# Type II restriction enzyme …: B1 Type II restriction enzyme … with M94I, D211N
# B3: BsoBI D246G: BsoBI restriction enzyme with mutation D246G (protein, UniProt P70985 2-323, looked up, variant D246G)
# Type II restriction enzyme …: B1 Type II restriction enzyme … with M94I, D245G
# B4: BsoBI K209R: BsoBI restriction enzyme with mutation K209R (protein, UniProt P70985 2-323, looked up, variant K209R)
# Type II restriction enzyme …: B1 Type II restriction enzyme … with M94I, K208R
# B5: BsoBI D124Y: BsoBI restriction enzyme with mutation D124Y (protein, UniProt P70985 2-323, looked up, variant D124Y)
# Type II restriction enzyme …: B1 Type II restriction enzyme … with M94I, D123Y
# B6: BsoBI G123R: BsoBI restriction enzyme with mutation G123R (protein, UniProt P70985 2-323, looked up, variant G123R)
# Type II restriction enzyme …: B1 Type II restriction enzyme … with M94I, G122R
# B7: BsoBI E252K: BsoBI restriction enzyme with mutation E252K (protein, UniProt P70985 2-323, looked up, variant E252K)
# Type II restriction enzyme …: B1 Type II restriction enzyme … with M94I, E251K
# B8: BsoBI D212V: BsoBI restriction enzyme with mutation D212V (protein, UniProt P70985 2-323, looked up, variant D212V)
# Type II restriction enzyme …: B1 Type II restriction enzyme … with M94I, D211V
# B9: BamHI T114I: BamHI restriction enzyme with mutation T114I (protein, UniProt P23940 1-213, looked up, variant T114I)
# Type II restriction enzyme …: MEVEKEFITDEAKELLSKDKLIQQAYNEVKTSICSPIWPATSKTFTINNTEKNCNGVVPIKELCYTLLEDTYNWYREKPLDILKLEKKKGGPIDVYKEFIENSELKRVGMEFEIGNISSAHRSMNKLLLGLKHGEIDLAIILMPIKQLAYYLTDRVTNFEELEPYFELTEGQPFIFIGFNAEAYNSNVPLIPKGSDGMSKRSIKKWKDKVENK
# B10: BamHI G56S: BamHI restriction enzyme with mutation G56S (protein, UniProt P23940 1-213, looked up, variant G56S)
# Type II restriction enzyme …: B9 Type II restriction enzyme … with G56S, I114T
# B11: BamHI E135K: BamHI restriction enzyme with mutation E135K (protein, UniProt P23940 1-213, looked up, variant E135K)
# Type II restriction enzyme …: B9 Type II restriction enzyme … with I114T, E135K
# B12: BamHI G194D: BamHI restriction enzyme with mutation G194D (protein, UniProt P23940 1-213, looked up, variant G194D)
# Type II restriction enzyme …: B9 Type II restriction enzyme … with I114T, G194D
# B13: BamHI T157I: BamHI restriction enzyme with mutation T157I (protein, UniProt P23940 1-213, looked up, variant T157I)
# Type II restriction enzyme …: B9 Type II restriction enzyme … with I114T, T157I
# B14: BamHI D94N: BamHI restriction enzyme with mutation D94N (protein, UniProt P23940 1-213, looked up, variant D94N)
# Type II restriction enzyme …: B9 Type II restriction enzyme … with D94N, I114T
# B15: BamHI G130R: BamHI restriction enzyme with mutation G130R (protein, UniProt P23940 1-213, looked up, variant G130R)
# Type II restriction enzyme …: B9 Type II restriction enzyme … with I114T, G130R
# B16: EcoRV D74N: EcoRV restriction enzyme with mutation D74N (protein, UniProt P04390 2-245, looked up, variant D74N)
# Type II restriction enzyme …: SLRSDLINALYDENQKYDVCGIISAEGKIYPLGSDTKVLSTIFELFSRPIINKIAEKHGYIVEEPKQQNHYPNFTLYKPSEPNKKIAIDIKTTYTNKENEKIKFTLGGYTSFIRNNTKNIVYPFDQYIAHWIIGYVYTRVATRKSSLKTYNINELNEIPKPYKGVKVFLQDKWVIAGDLAGSGNTTNIGSIHAHYKDFVEGKGIFDSEDEFLDYWRNYERTSQLRNDKYNNISEYRNWIYRGRK
# B17: EcoRV K92Q: EcoRV restriction enzyme with mutation K92Q (protein, UniProt P04390 2-245, looked up, variant K92Q)
# Type II restriction enzyme …: B16 Type II restriction enzyme … with N73D, K91Q
# B18: EcoRV D90T: EcoRV restriction enzyme with mutation D90T (protein, UniProt P04390 2-245, looked up, variant D90T)
# Type II restriction enzyme …: B16 Type II restriction enzyme … with N73D, D89T
# B19: EcoRV K92E: EcoRV restriction enzyme with mutation K92E (protein, UniProt P04390 2-245, looked up, variant K92E)
# Type II restriction enzyme …: B16 Type II restriction enzyme … with N73D, K91E
# B20: EcoRV K92A: EcoRV restriction enzyme with mutation K92A (protein, UniProt P04390 2-245, looked up, variant K92A)
# Type II restriction enzyme …: B16 Type II restriction enzyme … with N73D, K91A
# B21: EcoRV D90A: EcoRV restriction enzyme with mutation D90A (protein, UniProt P04390 2-245, looked up, variant D90A)
# Type II restriction enzyme …: B16 Type II restriction enzyme … with N73D, D89A
# B22: Eco57I D78N: Eco57I restriction enzyme with mutation D78N (protein, UniProt P25239 1-998, looked up, variant D78N)
# Type II restriction enzyme …: MNKKDQLQRLIDKYKSDIDYYRSARYNETQLRTDFLDQLFLILGWDITNAAGKPTNEREVLVEEGLKARAGENTKKPNYTFRLFSERKFFLEAKKPSVDISTTIEPALQVRRYGFTAKLKISVLSNFEYTAIYDCSNQVKETDSVANSRIKLYHFTELVDKFDEINNLIGRESVYTGHFDNEWSEIENKILRFSVDDLFLKQINDWRLLLANEFLQIKNELPEEKLNDLVQNYINSIVFLRVCEDRDLEEYETLYHFAQDKDFQSLVKKLKSSDKKYNSGLFSLEYIDELLSNANSCIWSIIEQLYFPQSTYSFSVFSSDILGNIYEIFLSEKVRIDELGNVKIQPKEEHIDRDVVTTPTHIVKEIIRNTVVEYCKGKSDIEILNSKFADIACGSGAFIIEAFQFIQDILIDYYIQNDKSKLQQISEHTYKLKFEVKREILCKCIYGIDKDYNATKACTFGLLLKLLEGETTETIGKDTPILPALDTNILFGNSLIDSGDKVKQEDIFSINPFDLTNYQFDVIVGNPPYMATEHMNQLTPKELDIYKRKYKSAYKQFDKYFLFIERSIQILKEYGYLGYILPSRFIKVDAGKKLRKFLSENKYLSKLISFGSHQVFKNKTTYTCLLFLNKENHDNFSFYEVKDFKKWLTREDKYLLSSTYQTSSLDSDTWVLEKKINDILKLMFSKSEQLGNIVGKSNVANGIQTSANKYYIHKEIKSENGFIYFEYDGIEYHIEKELTRPYFETNRSGDDSFYTYKDVEPNSFVVYPYKKVGERIQFIEYDELKRQYPKLFEFLQVVKVHLNDKKRSIKPDPTGPNEWYRYGRSQALENCDVDQKLIVGILSNGYKYSIDNHRTFVSSGGTAGYSIINIPNNVRYSIYYIQAILTSKYLEWFASIYGDIFRGRFVARGTKVQTRMPIPTIDFDDPKQKEIHDTISSKQQYLNKLYSQTQKSADRDKIIFERQFEQEKIQMDYLIKNLFDLGDLDSEIPTVEDLYKNL
# B23: Eco57I E92Q: Eco57I restriction enzyme with mutation E92Q (protein, UniProt P25239 1-998, looked up, variant E92Q)
# Type II restriction enzyme …: B22 Type II restriction enzyme … with N78D, E92Q
# System: nucleic acid recognition or cleavage site
# Details: mutant restriction enzyme relative to wild type; cited from earlier work
molecule,measurement,value
B1,% of WT cleavage activity,<0.1%
B2,% of WT cleavage activity,<0.1%
B3,% of WT cleavage activity,<0.1%
B4,% of WT cleavage activity,<0.1%
B5,% of WT cleavage activity,<0.1%
B6,% of WT cleavage activity,<0.1%
B7,% of WT cleavage activity,<0.1%
B8,% of WT cleavage activity,<0.1%
B9,% of WT cleavage activity,1%
B10,% of WT cleavage activity,1%
B11,% of WT cleavage activity,1%
B12,% of WT cleavage activity,1%
B13,% of WT cleavage activity,1%
B14,% of WT cleavage activity,<0.1%
B15,% of WT cleavage activity,0.1%
B16,% of WT cleavage activity,1.5%
B17,% of WT cleavage activity,0%
B18,% of WT cleavage activity,0%
B19,% of WT cleavage activity,<0.1%
B20,% of WT cleavage activity,<0.1%
B21,% of WT cleavage activity,0%
B22,% of WT cleavage activity,<0.1%
B23,% of WT cleavage activity,<0.1%
